Measured values: patent US20250011363A1, “OPTIMIZED SHORTENED PEPTIDE THAT BINDS TO ACETYLCHOLINE RECEPTOR, AND USE THEREOF” (SKINMED CO., LTD., priority 2021, published 2025)

target: acetylcholine receptor (Homo sapiens, UniProt P02708); test: SPR binding affinity (RU) of optimized 5mer/6mer/7mer peptides, Examples 6-7; conditions: 6mer-1 Top sequence; SPR; peptides tested at 10 μM
Procedure, shortened: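 Using surface plasmon resonance, binding to the acetylcholine receptor was measured for each sequence at a single 10 μM concentration. Values are response units.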

Chain of acetylcholine receptor (P02708 21-457): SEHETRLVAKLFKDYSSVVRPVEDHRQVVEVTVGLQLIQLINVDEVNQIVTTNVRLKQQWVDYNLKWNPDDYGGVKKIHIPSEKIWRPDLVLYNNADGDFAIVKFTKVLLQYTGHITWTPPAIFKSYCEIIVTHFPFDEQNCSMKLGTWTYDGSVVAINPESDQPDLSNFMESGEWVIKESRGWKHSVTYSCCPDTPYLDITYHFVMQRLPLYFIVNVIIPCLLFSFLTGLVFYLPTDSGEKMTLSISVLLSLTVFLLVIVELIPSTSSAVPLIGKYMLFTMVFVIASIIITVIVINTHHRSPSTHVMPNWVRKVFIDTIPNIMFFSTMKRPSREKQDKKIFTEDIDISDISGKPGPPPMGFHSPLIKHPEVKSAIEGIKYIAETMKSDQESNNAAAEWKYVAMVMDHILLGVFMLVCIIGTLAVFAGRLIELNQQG

First: 6mer-1-267 (KRRLLR)
Second: 6mer-1-319 (KRWVQK)
The Binding affinity of the first is higher: 139 Ru for the first, 123 Ru for the second.

Going from 6mer-1-295 (KRQRCR) to 6mer-1-270 (KRGLRR), the Binding affinity rises from 148 Ru to 149 Ru.

Compared with 6mer-1-209 (RKGYTR), 6mer-1-288 (KKVQQR) is higher in Binding affinity: 121 Ru for the first, 148 Ru for the second.

Compared with 6mer-1-350 (KKLQTK), 6mer-1-352 (RKVFRK) is lower in Binding affinity: 153 Ru for the first, 142 Ru for the second.

6mer-1-250 (RRVICR) was tested, and the Binding affinity was 142 Ru.

same assay, conditions: 6mer-2 Top sequence; SPR; peptides tested at 10 μM

Going from 6mer-2-64 (KSVSKK) to 6mer-2-81 (RRVSRR), the Binding affinity falls from 136 Ru to 121 Ru.

Compared with 6mer-2-90 (KGRTKR), 6mer-2-85 (KSQYKR) is higher in Binding affinity: 133 Ru for the first, 137 Ru for the second.

Compared with 6mer-2-30 (RQFYKK), 6mer-2-47 (KLQSRR) is higher in Binding affinity: 139 Ru for the first, 148 Ru for the second.

Compared with 6mer-2-165 (KWFTRR), 6mer-2-70 (KRLLRK) is lower in Binding affinity: 139 Ru for the first, 126 Ru for the second.

First: 6mer-2-102 (KVYQKK)
Second: 6mer-2-61 (RGFQRK)
The Binding affinity of the first is lower: 139 Ru for the first, 148 Ru for the second.

same assay, conditions: SPR, Resonance Units; 5mer Bottom sequence (bottom combinations); peptides tested at 10 μM

First: 5mer-639 (KETWK)
Second: 5mer-753 (RKTPK)
The Binding affinity of the first is lower: 13 Ru for the first, 30 Ru for the second.

Compared with 5mer-1011 (KTDMK), 5mer-902 (REDPK) is lower in Binding affinity: 25 Ru for the first, 23 Ru for the second.

Compared with 5mer-1005 (RTHGR), 5mer-1000 (KHCWR) is lower in Binding affinity: 30 Ru for the first, 20 Ru for the second.

Going from 5mer-1020 (KCKVK) to 5mer-793 (KKPHR), the Binding affinity rises from 12 Ru to 19 Ru.

First: 5mer-802 (RITVR)
Second: 5mer-925 (KDCFK)
The Binding affinity of the first is higher: 27 Ru for the first, 25 Ru for the second.

Going from 5mer-682 (KPNVK) to 5mer-979 (RHHMK), the Binding affinity falls from 31 Ru to 23 Ru.

same assay, conditions: SPR, Resonance Units; peptides tested at 10 μM; 6mer-1 Bottom sequence

Compared with 6mer-1-1146 (KKMMPK), 6mer-1-1082 (KKTCDR) is higher in Binding affinity: 34 Ru for the first, 37 Ru for the second.

Compared with 6mer-1-1075 (KKPSVK), 6mer-1-1022 (RKDTVR) is lower in Binding affinity: 38 Ru for the first, 22 Ru for the second.

Going from 6mer-1-1003 (RKYCHR) to 6mer-1-1071 (RKTKAK), the Binding affinity rises from 24 Ru to 38 Ru.

same assay, conditions: SPR, Resonance Units; peptides tested at 10 μM; 6mer-2 Bottom sequence

First: 6mer-2-739 (RIHAKK)
Second: 6mer-2-833 (RKTWRR)
The Binding affinity of the first is higher: 17 Ru for the first, 14 Ru for the second.

Compared with 6mer-2-869 (RHDHKR), 6mer-2-927 (RFNPRK) is higher in Binding affinity: 18 Ru for the first, 39 Ru for the second.

First: 6mer-2-665 (KCAERR)
Second: 6mer-2-836 (KNTMKR)
The Binding affinity of the first is lower: 18 Ru for the first, 26 Ru for the second.

Going from 6mer-2-822 (RCTAKK) to 6mer-2-967 (RTSNKK), the Binding affinity rises from 13 Ru to 35 Ru.

Going from 6mer-2-904 (KCCFKK) to 6mer-2-742 (KNNWRR), the Binding affinity rises from 30 Ru to 32 Ru.

Compared with 6mer-2-821 (RPTMKR), 6mer-2-713 (RASWRR) is lower in Binding affinity: 33 Ru for the first, 24 Ru for the second.

First: 6mer-2-877 (KPPERR)
Second: 6mer-2-926 (RPTVKR)
The Binding affinity of the first is lower: 17 Ru for the first, 31 Ru for the second.

First: 6mer-2-779 (KAAHRR)
Second: 6mer-2-876 (KEDNKR)
The Binding affinity of the first is lower: 13 Ru for the first, 17 Ru for the second.

same assay, conditions: SPR, Resonance Units; peptides tested at 10 μM; 6mer-2 Top sequence

Compared with 6mer-2-574 (KGVYRK), 6mer-2-523 (RGRYKR) is lower in Binding affinity: 153 Ru for the first, 146 Ru for the second.

Compared with 6mer-2-524 (RGIQKR), 6mer-2-591 (KGILRR) is higher in Binding affinity: 128 Ru for the first, 146 Ru for the second.

6mer-2-435 (RWVYKR) gave a Binding affinity of 154 Ru.

same assay, conditions: SPR, Resonance Units; peptides tested at 10 μM; 6mer-2 Top sequence (Table 12)

First: 6mer-2-226 (RLLCKR)
Second: 6mer-2-259 (RVQSKR)
The Binding affinity of the first is higher: 154 Ru for the first, 128 Ru for the second.

6mer-2-299 (RWYYRK) and 6mer-2-360 (KGVRRR) are the same in Binding affinity: 141 Ru for the first, 141 Ru for the second.

same assay, conditions: SPR, peptides at 10 μM; 6mer-2 Bottom sequence

Going from 6mer-2-1086 (KNDWRK) to 6mer-2-1029 (KEEFKK), the Binding affinity rises from 21 Ru to 40 Ru.

Going from 6mer-2-1051 (RKHMRR) to 6mer-2-1173 (KCCNKK), the Binding affinity rises from 24 Ru to 38 Ru.

Compared with 6mer-2-1092 (RAKFRR), 6mer-2-1013 (KPPDKR) is higher in Binding affinity: 21 Ru for the first, 23 Ru for the second.

Going from 6mer-2-1148 (KEKGKR) to 6mer-2-1107 (RAHERK), the Binding affinity falls from 34 Ru to 29 Ru.

Going from 6mer-2-1160 (RITVKK) to 6mer-2-1196 (RESKKR), the Binding affinity rises from 23 Ru to 39 Ru.

First: 6mer-2-1020 (KHDKKR)
Second: 6mer-2-1103 (RDAWRK)
The Binding affinity of the first is lower: 21 Ru for the first, 42 Ru for the second.

same assay, conditions: SPR, peptides tested at 10 μM; 5mer Top sequence

Going from 5mer-204 (RQFQR) to 5mer-186 (KRLQR), the Binding affinity falls from 84 Ru to 64 Ru.

First: 5mer-107 (RWVSR)
Second: 5mer-47 (KGVRR)
The Binding affinity of the first is lower: 56 Ru for the first, 70 Ru for the second.

Compared with 5mer-150 (RVRTR), 5mer-356 (KQVLR) is higher in Binding affinity: 64 Ru for the first, 65 Ru for the second.

First: 5mer-53 (RLVTR)
Second: 5mer-377 (KGFYK)
The Binding affinity of the first is lower: 50 Ru for the first, 67 Ru for the second.

Going from 5mer-313 (RSQLK) to 5mer-209 (RGVRR), the Binding affinity rises from 75 Ru to 78 Ru.

Going from 5mer-183 (KRVYR) to 5mer-317 (RRVQR), the Binding affinity rises from 64 Ru to 86 Ru.

Going from 5mer-436 (RVFYK) to 5mer-1 (RVQCK), the Binding affinity falls from 60 Ru to 54 Ru.

First: 5mer-182 (RVLSK)
Second: 5mer-505 (RQIYR)
The Binding affinity of the first is lower: 70 Ru for the first, 71 Ru for the second.

same assay, conditions: SPR, peptides tested at 10 μM; 5mer Top sequence (top combinations)

Going from 5mer-289 (RRQYR) to 5mer-526 (KQFSR), the Binding affinity falls from 87 Ru to 54 Ru.

First: 5mer-552 (RLYSR)
Second: 5mer-560 (KWYQR)
The Binding affinity of the first is higher: 63 Ru for the first, 59 Ru for the second.

Compared with 5mer-588 (RSFTR), 5mer-589 (KGLCR) is lower in Binding affinity: 60 Ru for the first, 58 Ru for the second.

In the case of 5mer-236 (KRRCK), the Binding affinity is reported as 81 Ru.

same assay, conditions: SPR, peptides tested at 10 μM; 6mer-1 Bottom sequence (Table 11)

Going from 6mer-1-871 (KREWDR) to 6mer-1-819 (KRMHAK), the Binding affinity falls from 30 Ru to 17 Ru.

For 6mer-1-903 (KKHKPR), the Binding affinity was 37 Ru.

same assay, conditions: SPR, peptides tested at 10 μM; 6mer-1 Top sequence

First: 6mer-1-462 (RKQILK)
Second: 6mer-1-444 (KKWILK)
The Binding affinity of the first is lower: 126 Ru for the first, 144 Ru for the second.

Going from 6mer-1-456 (RRGQYR) to 6mer-1-556 (KKGFTK), the Binding affinity falls from 153 Ru to 145 Ru.

6mer-1-516 (KKRFSR) and 6mer-1-469 (KKLIYR) are the same in Binding affinity: 139 Ru for the first, 139 Ru for the second.

same assay, conditions: SPR, peptides tested at 10 μM; 6mer-1 Top sequence (top combinations)

Going from 6mer-1-68 (RKLQLK) to 6mer-1-81 (RRWQLR), the Binding affinity falls from 153 Ru to 148 Ru.

Going from 6mer-1-193 (KRVQLK) to 6mer-1-60 (RKSIQK), the Binding affinity falls from 149 Ru to 139 Ru.

Compared with 6mer-1-139 (KRRFLR), 6mer-1-6 (RKSRCK) is higher in Binding affinity: 122 Ru for the first, 153 Ru for the second.

Compared with 6mer-1-102 (RRRYRR), 6mer-1-156 (RRSVTK) is higher in Binding affinity: 127 Ru for the first, 154 Ru for the second.

First: 6mer-1-170 (RKSFYR)
Second: 6mer-1-118 (RKLQLR)
The Binding affinity of the first is higher: 148 Ru for the first, 127 Ru for the second.

same assay, conditions: SPR; XRRQRR-6mer and RRQRRX-6mer

Going from 3602 (ARRQRR) [compound 3602] to 3604 (CRRQRR) [compound 3604], the “Binding affinity, relative value to the RRQRR sequence” value falls from 129 to 123.

same assay, conditions: SPR; peptides tested at 10 μM; 5mer Bottom sequence

5mer-840 (KDTAR) and 5mer-866 (RINWR) are the same in Binding affinity: 11 Ru for the first, 11 Ru for the second.
